Measured values: article PMC3677097, “Structural Basis of Brr2-Prp8 Interactions and Implications for U5 snRNP Biogenesis and the Spliceosome Active Site” (Structure(London, England:1993), 2013)

Molecular target: Prp8^885–2413 tagged with a calmodulin-binding peptide (CBP) at the N terminus (yeast, UniProt P33334 885-2413)
Experiment: pull-down; calmodulin pull-down; CBP-tagged Prp8^885-2413 or its complexes as bait (0.5 μM), prey 1.0 μM; overnight at 4°C in 20 mM HEPES K+ pH 7.8, 300 mM KCl, 1 mM Mg(OAc)2, 2 mM CaCl2, 10 mM β-mercaptoethanol; calmodulin resin 3 hr, eluted with EGTA; SDS-PAGE
Settings: both partners purified

Chain of Prp8^885–2413 tagged with a calmodulin-binding peptide (CBP) at the N terminus (P33334 885-2413): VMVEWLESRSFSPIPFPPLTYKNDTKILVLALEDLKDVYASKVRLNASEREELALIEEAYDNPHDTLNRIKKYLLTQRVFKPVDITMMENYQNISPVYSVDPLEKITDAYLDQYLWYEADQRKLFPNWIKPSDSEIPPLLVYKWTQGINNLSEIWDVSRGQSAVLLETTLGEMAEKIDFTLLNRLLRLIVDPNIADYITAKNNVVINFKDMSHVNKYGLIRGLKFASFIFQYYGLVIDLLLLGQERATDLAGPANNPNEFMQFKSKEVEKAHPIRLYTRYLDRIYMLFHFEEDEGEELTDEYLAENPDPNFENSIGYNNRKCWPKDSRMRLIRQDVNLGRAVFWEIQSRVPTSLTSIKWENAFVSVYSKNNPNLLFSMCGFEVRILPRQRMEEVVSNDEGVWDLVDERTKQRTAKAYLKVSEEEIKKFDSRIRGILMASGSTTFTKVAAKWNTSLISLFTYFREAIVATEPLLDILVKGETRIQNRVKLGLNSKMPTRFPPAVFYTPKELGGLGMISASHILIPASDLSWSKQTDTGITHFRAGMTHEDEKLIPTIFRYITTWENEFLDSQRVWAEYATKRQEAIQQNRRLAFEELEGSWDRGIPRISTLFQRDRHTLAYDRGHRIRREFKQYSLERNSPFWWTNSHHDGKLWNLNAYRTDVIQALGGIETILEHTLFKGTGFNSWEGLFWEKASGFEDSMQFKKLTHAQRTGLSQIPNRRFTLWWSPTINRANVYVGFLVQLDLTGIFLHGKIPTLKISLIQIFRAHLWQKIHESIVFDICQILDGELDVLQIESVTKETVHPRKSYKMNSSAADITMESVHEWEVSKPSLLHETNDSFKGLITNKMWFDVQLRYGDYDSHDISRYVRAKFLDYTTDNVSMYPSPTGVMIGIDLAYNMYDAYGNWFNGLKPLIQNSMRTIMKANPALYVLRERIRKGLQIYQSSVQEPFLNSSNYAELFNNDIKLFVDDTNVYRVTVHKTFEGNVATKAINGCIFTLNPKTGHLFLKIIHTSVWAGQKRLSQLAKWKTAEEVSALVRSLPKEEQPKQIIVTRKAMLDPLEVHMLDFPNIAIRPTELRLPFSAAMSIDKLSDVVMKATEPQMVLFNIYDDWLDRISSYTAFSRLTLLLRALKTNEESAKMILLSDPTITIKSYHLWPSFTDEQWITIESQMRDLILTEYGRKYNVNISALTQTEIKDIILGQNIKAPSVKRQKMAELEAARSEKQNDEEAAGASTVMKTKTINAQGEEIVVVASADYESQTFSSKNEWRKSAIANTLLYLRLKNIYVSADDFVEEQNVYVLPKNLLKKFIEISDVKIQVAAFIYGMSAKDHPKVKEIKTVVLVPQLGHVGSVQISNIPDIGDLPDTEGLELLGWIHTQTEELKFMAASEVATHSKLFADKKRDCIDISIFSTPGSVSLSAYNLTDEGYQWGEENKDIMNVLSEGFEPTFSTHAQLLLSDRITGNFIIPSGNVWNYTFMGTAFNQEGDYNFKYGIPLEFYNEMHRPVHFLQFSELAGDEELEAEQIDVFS

Row | Binder | binding result
1 | Aar2 (natural protein, yeast, UniProt P32357 1-355, looked up, Aar2, U5 snRNP assembly factor, yeast; also called U5 snRNP assembly factor Aar2) MNTVPFTSAPIEVTIGIDQYSFNVKENQPFHGIKDIPIGHVHVIHFQHADNSSMRYGYWFDCRMGNFYIQYDPKDGLYKMMEERDGAKFENIVHNFKERQMMVSYPKIDEDDTWYNLTEFVQMDKIRKIVRKDENQFSYVDSSMTTVQENELLKSSLQKAGSKMEAKNEDDPAHSLNYTVINFKSREAIRPGHEMEDFLDKSYYLNTVMLQGIFKNSSNYFGELQFAFLNAMFFGNYGSSLQWHAMIELICSSATVPKHMLDKLDEILYYQIKTLPEQYSDILLNERVWNICLYSSFQKNSLHNTEKIMENKYPELLGKDNEDDALIYGISDEERDDEDDEHNPTIVGGLYYQRP | binds
2 | Aar2ΔC (missing 23 C-terminal residues) (domain or fragment, yeast, UniProt P32357 1-332, looked up, Aar2, yeast, missing 23 C-terminal residues (so in the source)) MNTVPFTSAPIEVTIGIDQYSFNVKENQPFHGIKDIPIGHVHVIHFQHADNSSMRYGYWFDCRMGNFYIQYDPKDGLYKMMEERDGAKFENIVHNFKERQMMVSYPKIDEDDTWYNLTEFVQMDKIRKIVRKDENQFSYVDSSMTTVQENELLKSSLQKAGSKMEAKNEDDPAHSLNYTVINFKSREAIRPGHEMEDFLDKSYYLNTVMLQGIFKNSSNYFGELQFAFLNAMFFGNYGSSLQWHAMIELICSSATVPKHMLDKLDEILYYQIKTLPEQYSDILLNERVWNICLYSSFQKNSLHNTEKIMENKYPELLGKDNEDDALIYGISD | binds
